PMC12578637, “Structure of a distinct β-barrel assembly machinery complex in the Bacteroidota” (Nature Microbiology, 2025)

B6: PgBamH (PGN_1735) with C-terminal 7His tag (natural protein, P. gingivalis, UniProt B2RLK9 19-455, looked up)
chain: CDDDLSPIGGSIQPPSDPVSARVDTLEFSVKTIPMGDIYNRTNYTLLGDLTDPEYGDLKADYIMQFKSPRNFKFKYPPKDGKIDSVKLSINYDSWAGDSTSIMKVSIYKINKAIPPSYYSTQELASLLDETQIIASQTFKAGNDSAFHRVRIPLPNEIGQKIYDLSVNNPSVFDTQESFYNNVLGGLYVTTTTGTGVVLSVYNTQMAIFYSYKVAADSTATASETFVNTSESYQVNHIKNSQISHLLQENDSLSCVKSPAGVMTQLTISKEQFTDAFTSNLSSSLAWQIGEAQFNISASKPSEGLMLSPPSYLLLLPQDSVRNFFEQEQTELMQPRTAFLSTIYNIKKREYRFSNISRLLMEHIKNNTEKTPEGKPYITKDLVLVLLPVKRQVAGASNSLYTSQLNNFMFPSGVKLQLGKKNKTARIGVYSMTYTDN
modifications: tri-acylated lipid anchor; O-glycosylation (7 sites)
notes: BamH (PGN_1735) of Porphyromonas gingivalis strain ATCC 33277, surface-exposed lipoprotein; 88 residues shorter than BtBamH; also called His-tagged BamH; source: C-terminally His-tagged by homologous recombination in P. gingivalis; membranes solubilised in 1% DDM; not shown: His7, C-terminal, kept

Legend:
[1] = target: T1, PgBamA, BamA of P. gingivalis ATCC 33277 (P. gingivalis (endogenous in P. …, UniProt B2RHH3 20-891)); experiment: cryo-EM structure; PgBAM complex co-purified through C-terminally His-tagged BamH from P. gingivalis membranes, in DDM, 4.9 mg/ml; 3.24 Å class without periplasmic density; AF2 models docked and refined; conditions: both partners purified
T1 construct: BamA of Porphyromonas gingivalis strain ATCC 33277; Periplasmic part only very weak, not modelled, possibly clipped by gingipains; EL3 (39 residues) has no density; source: endogenous, P. gingivalis expressing His-tagged BamH, membranes solubilised in 1% DDM
T1 sequence (looked up): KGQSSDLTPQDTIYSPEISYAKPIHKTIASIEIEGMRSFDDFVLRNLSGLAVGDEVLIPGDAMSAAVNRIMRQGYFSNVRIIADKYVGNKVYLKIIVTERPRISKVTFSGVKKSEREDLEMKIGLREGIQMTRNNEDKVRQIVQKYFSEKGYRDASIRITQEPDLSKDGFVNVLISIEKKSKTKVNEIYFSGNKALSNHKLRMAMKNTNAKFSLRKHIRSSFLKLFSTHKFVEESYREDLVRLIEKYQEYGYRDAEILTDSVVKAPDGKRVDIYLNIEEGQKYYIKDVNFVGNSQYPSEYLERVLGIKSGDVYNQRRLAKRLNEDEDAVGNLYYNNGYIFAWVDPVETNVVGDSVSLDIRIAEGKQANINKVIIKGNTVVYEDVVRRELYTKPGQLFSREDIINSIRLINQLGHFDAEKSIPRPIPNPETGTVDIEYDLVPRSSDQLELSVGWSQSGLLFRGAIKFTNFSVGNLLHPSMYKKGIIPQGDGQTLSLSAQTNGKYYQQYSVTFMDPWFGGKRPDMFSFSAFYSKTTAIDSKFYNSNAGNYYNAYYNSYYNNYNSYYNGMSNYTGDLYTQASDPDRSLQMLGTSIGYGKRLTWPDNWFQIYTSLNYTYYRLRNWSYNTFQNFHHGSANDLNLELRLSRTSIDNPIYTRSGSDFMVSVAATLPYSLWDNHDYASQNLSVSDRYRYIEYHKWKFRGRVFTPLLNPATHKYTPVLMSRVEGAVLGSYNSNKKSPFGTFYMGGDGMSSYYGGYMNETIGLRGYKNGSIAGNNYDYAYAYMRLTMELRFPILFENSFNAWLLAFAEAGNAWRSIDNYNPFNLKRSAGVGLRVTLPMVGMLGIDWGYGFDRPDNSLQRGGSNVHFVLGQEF

[2] = target: B6; experiment: as above; conditions: both partners purified
BtBamH (Bt4306) = target: T2, BtBamH (Bt4306) (B. thetaiotaomicron (endogenous in B. …, UniProt Q89ZS0 18-542, tri-acylated lipid anchor on the N-terminal cysteine)); O-glycosylation (Ser309 among the sites)); experiment: cryo-EM structure; BtBAM complex co-purified through BamAhis from native membranes, in DDM, 8 mg/ml; two 3D classes (3.28 Å and 3.46 Å); AF2 models docked and refined; conditions: both partners purified
T2 sequence (looked up): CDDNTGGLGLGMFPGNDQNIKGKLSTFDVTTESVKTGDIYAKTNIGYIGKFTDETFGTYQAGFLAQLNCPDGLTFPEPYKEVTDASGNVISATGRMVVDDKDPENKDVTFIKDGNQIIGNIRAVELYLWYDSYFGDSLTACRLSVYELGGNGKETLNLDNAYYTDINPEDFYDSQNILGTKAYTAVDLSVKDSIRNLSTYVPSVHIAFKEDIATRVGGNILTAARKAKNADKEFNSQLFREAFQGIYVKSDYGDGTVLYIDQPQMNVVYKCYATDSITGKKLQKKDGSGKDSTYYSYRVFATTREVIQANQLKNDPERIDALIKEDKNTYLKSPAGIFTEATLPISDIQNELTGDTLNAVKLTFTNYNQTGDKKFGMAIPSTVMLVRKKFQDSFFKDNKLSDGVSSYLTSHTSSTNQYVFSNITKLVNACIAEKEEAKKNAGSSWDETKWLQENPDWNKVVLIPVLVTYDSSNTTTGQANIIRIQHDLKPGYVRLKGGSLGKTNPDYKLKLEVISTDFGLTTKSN

[3] = target: T3, BtBamA (Bt3725), B. thetaiotaomicron BamA with N-terminal His7 tag (B. thetaiotaomicron, UniProt Q8A1E1 20-885); experiment: affinity purification with mass spectrometry; chromosomally His7-tagged BamA as bait; B. thetaiotaomicron total membranes solubilised in TBS with 0.75% DDM and 0.75% DM; Ni IMAC, SEC in 10 mM HEPES-NaOH, 100 mM NaCl, 0.03% DDM pH 7.5; SDS-PAGE bands of pooled SEC peak fractions identified by peptide fingerprinting; IMAC elutions by quantitative proteomics against untagged wild-type cells; conditions: partners not purified
T3 sequence (looked up): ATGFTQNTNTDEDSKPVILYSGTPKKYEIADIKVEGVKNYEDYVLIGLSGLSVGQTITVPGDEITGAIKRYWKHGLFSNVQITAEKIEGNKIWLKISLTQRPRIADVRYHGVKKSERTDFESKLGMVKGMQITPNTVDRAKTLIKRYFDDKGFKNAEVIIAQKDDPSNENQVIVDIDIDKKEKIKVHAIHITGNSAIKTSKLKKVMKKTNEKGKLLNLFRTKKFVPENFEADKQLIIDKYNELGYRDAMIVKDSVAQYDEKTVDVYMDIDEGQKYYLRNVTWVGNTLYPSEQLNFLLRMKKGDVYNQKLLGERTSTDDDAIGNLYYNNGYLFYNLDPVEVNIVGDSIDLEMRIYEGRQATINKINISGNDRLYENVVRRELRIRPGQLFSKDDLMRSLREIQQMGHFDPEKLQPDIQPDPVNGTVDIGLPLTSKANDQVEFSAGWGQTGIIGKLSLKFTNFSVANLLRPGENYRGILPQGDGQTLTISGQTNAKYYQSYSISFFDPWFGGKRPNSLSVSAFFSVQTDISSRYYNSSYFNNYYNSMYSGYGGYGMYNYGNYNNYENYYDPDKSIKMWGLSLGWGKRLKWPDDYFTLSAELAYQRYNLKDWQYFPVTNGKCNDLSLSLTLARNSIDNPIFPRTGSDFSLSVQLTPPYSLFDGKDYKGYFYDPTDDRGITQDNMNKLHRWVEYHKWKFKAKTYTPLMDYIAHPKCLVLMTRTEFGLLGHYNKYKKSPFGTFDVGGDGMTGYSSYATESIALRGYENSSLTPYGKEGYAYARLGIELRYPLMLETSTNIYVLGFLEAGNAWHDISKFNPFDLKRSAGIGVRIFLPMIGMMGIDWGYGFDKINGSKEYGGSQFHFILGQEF

B1: PgBamG, BamG of P. gingivalis ATCC 33277 (natural protein, UniProt B2RKY8 31-434, looked up)
chain: QNNNFTESPYTRFGLGRLGERTTISGHSMGGLGVGLRQGTYVNAVNPASYSAVDSMTFIFDFGASTGITWYAENGKKDNRKMGNIEYFAMLFPISKSIAMSAGVLPYSASGYQFGSVDQVEGGSVQYTRKYLGTGNLNDLYVGIGATPFKNFSIGANASFLFGRFTHSRQVIFSTEAPYNPVHLSTLYLKAAKFDFGMQYHLPLKSDRSLVIGAVYSPRVKMHSELTQIKNQVQNGVVVESETQEYIKGMDYYTLPHTLGIGFSYEKKDKLLLGADVQYSKWKGEKFYKSDCKFQDRIRVSLGGEIMPDINAVGIWPKVRYRFGLHGENSYLKVPTKGGVYQGYHIVGAVFGIGIPLNDRRSFVNVSLEYDRLIPKEGMIKENALKLTFGLTFNESWFKKLKLN
modifications: O-glycosylation (Ser85)
notes: BamG of Porphyromonas gingivalis strain ATCC 33277; source: endogenous, P. gingivalis expressing His-tagged BamH, membranes solubilised in 1% DDM
Question: Does B1 bind [1]?
Answer: binds

Question: Does B1 bind [2]?
Answer: binds

B2: PgBamK, BamK of P. gingivalis ATCC 33277 (natural protein, UniProt B2RK12 24-203, looked up)
chain: CKKSDIKSLKEMKKDERKAIESFINRMGFTIKEGHEGQSEFDPDIMYHFDNDLYMQVLDKGKEPPVLNKTKINVRMEGFMFNRERDSIYVFNSLTSGGFQESVFRYIYKYNDGDIHFELIKCTTGSNLDMFVCEGVAFPMTMLGNKARVRLIVPFRIGPESLYSRGLTGYYKEVEYVFRD
notes: BamK (peptidyl-prolyl isomerase) of Porphyromonas gingivalis strain ATCC 33277; source: endogenous, P. gingivalis expressing His-tagged BamH, membranes solubilised in 1% DDM
Question: Does B2 bind [2]?
Answer: binds

B3: BtBamI (Bt3727) (natural protein, UniProt Q8A1D9 22-493, looked up)
chain: CLDNDNEVNYSPDATIRAFELDTIGYGVNYKFTIDQVSRLIYNVDSLPVNADTIINSILIKTLTTASGIVTMKDQNDQDSIVNINDSIDLTKYVNATEKNNFLVLKVWAPNMEVQNEYKVNIRMHTMVPDSLSWGKDPIANNPVRNTAEKQKVVTLGDKILLFAQNNEIYSTAIPAGSPTDRLNYGQKWDKETTGKLPDGADVTSIIRFVDKLYLLTKNKEVYNSNDGLTWTKDEVLNSDGVSVTNLITSFSDSDGSNHKKINGIAGIVEINGEKYFSFAEKDVTWEKDIDKLTVVPAEFPINNLSADVYATESGTLNAIVVGNTEDGLDNDTATVVWASEDGKAWIPMEIPSNNNCPKLVDPSIIHYNDAFYICGKETKDDAKGFQKFYTSPTLLVWKGVDRMFMLPGILPPVKLEGGVTQHPSLHESSFKGKEVNYTMVVDRNHYIWMVGGQGIDKIWRGRVNKLGFLIQ
modifications: lipid anchor cysteine; O-glycosylation at 10 sites (Ser67 among them)
Question: Does B3 bind (BtBamH (Bt4306))?
Answer: binds

B4: BtBamD (Bt0573) (natural protein, UniProt Q8AA92 18-267, looked up)
chain: CGEYNKLLKSTDYEYKYEAAKNYFAKGQYNRSATLLNELITILKGTDKAEESLYMLGMSYYNQKDYQTAAQTFITYFNTYPRGTFTELARFHAGKSLFLDTPEPRLDQSSTYQAIQQLQMFMEYFPNSTKKQEAQDMIFALQDKLVLKELYSAKLYYNLGNYLGNNYESCVITAQNALKDYPYTDYREELSILILRARHEMAIYSVEDKKMDRYRETIDEYYAFKNEFPESKYLKEAEKIFNESQKVIKD
Question: Does B4 bind [3]?
Answer: binds

B5: BtBamK (Bt3949) (natural protein, UniProt Q8A0S2 21-214, looked up)
chain: CDDSKTYAEMLEDEKNAVNKFIKDKGIRIISQDEFEKNDTVTNLERNEYVALSDGVYMQIVDRGSAENKTDTFANNNEICVRYIEEDIMTRDTTCFNVFLEEWGDANQLYTNPAVFRYVAEGSYVYGTFIQMDYYWASYYQSTAVPAGWLLALPFVRNYAHVRLIVPSKVGHSSAQQYVNPYYYDIWTFSKALN
modifications: lipid anchor cysteine; O-glycosylation sites
Question: Does B5 bind (BtBamH (Bt4306))?
Answer: binds

Question: Does B6 bind [1]?
Answer: binds

B7: PgBamJ, BamJ of P. gingivalis ATCC 33277 (natural protein, UniProt B2RH82 25-185, looked up)
chain: CEKRPNEEKQRRHDNEVAFNAYADSTNFKKVSVDGSTAYVYMRWITNGTGTEHPIATSRVEVHYQTYRLVGNIMVDGNYNSEKPARITLYRNEKDKSITGFRIALQNMVIGDECEFIVPWYLAYGSKGVPASSANLVPIPSYSALRFIVKLSGIIPEEDKK
notes: BamJ (peptidyl-prolyl isomerase) of Porphyromonas gingivalis strain ATCC 33277; source: endogenous, P. gingivalis expressing His-tagged BamH, membranes solubilised in 1% DDM
Question: Does B7 bind [2]?
Answer: binds
